Patent US20110293526A1, “COMPOSITIONS AND METHODS TO MODULATE HAIR GROWTH” (University of Southern California, priority 2008, published 2011)

Columns and labels:
[1] = in published reports; cited from earlier work
[2] = DMSO; cited from earlier work
competent telogen skin = assay: Protein administration experiment: human BMP4-soaked beads implanted into competent telogen skin ahead of an anagen-spreading wave; type: in vivo, mice; details: for propagation of the anagen-spreading (hair propagation) wave around the beads: beads soaked in human BMP4 1 mg per ml, implanted in competent telogen skin of adult mice, protein replenished every 24 h, twelve days later, versus control BSA/albumin beads
Description: Intracutaneous administration of exogenous protein was performed as follows. Affinity chromatography Affi-gel blue gel beads were obtained from Biorad. Beads were washed in 1×PBS, followed by drying. The beads were then re-suspended in 5 μl protein solution, either control (BSA 1 mg ml^−1) or experimental (human BMP4 1 mg per ml), at 4° C. for 30 min. Recombinant human BMP4 protein was obtained from R&D Systems. Reconstitution of the protein was performed in 4 mM HCl in 0.2% BSA as per the manufacturer's guidelines. Approximately 100 beads were introduced to the competent telogen skin of adult mice by means of a single puncture wound to the skin made by a 30 g syringe (insulin syringe). To replenish proteins, subsequent doses of 1.5 μl protein solution were microinjected to the site of the bead implantation every 24 h by means of a glass micro-needle until the tissue was harvested. After the anagen-spreading wave was noted to pass beyond the bead implantation sites (1 week in the case of FIGS. 2g, h), the skin was collected and inverted for photography. This allows the study of the anagen-wave-spreading dynamics around the control and human BMP4 beads.
Finally, it was tested whether a direct local delivery of BMP protein can convert competent telogen status to refractory in normal mice. Human-BMP4-soaked beads were implanted into competent telogen skin ahead of an anagen-spreading wave (see Methods in Botchkarev et al. (2001) FASEB J. 15:2205-14). […] Thus, the level of BMP activity can indeed explain the functional status (refractory versus competent) of a skin region.

Row | Molecule | toxicity [1] | solubility [2] | propagation of the anagen-spreading (hair propagation) wave around the beads (competent telogen skin) | propagation of the anagen-spreading (hair propagation) wave around the beads (competent telogen skin; listed as Human-BMP4) | propagation of the anagen-spreading (hair propagation) wave around the beads (competent telogen skin; listed as hBMP4) | status of treated skin and hair regeneration after intracutaneous delivery (competent telogen skin; delivered intracutaneously via single glass microneedle during competent telogen phase)
1 | c1cc(-c2cnn3cc(-c4ccc(OCCN5CCCCC5)cc4)cnc23)ccn1 [Dorsomorphin] | low toxicity | soluble in DMSO |  |  |  | 
2 | human BMP4: Recombinant human BMP4 protein obtained from R&D Systems (protein, UniProt P12644 293-408, looked up) Bone morphogenetic protein 4: SPKHHSQRARKKNKNCRRHSLYVDFSDVGWNDWIVAPPGYQAFYCHGDCPFPLADHLNSTNHAIVQTLVNSVNSSIPKACCVPTELSAISMLYLDEYDKVVLKNYQEMVVEGCGCR |  |  | prevented the propagation of the wave around the beads | caused hair propagation wave (solid arrow) to go around them, creating a new telogen domain | caused hair propagation wave (solid arrowed curve) to go around them, creating a new telogen domain | rendered treated skin refractory and prevented hair regeneration
